The chains are these.
B1: MMP1 (parent)
chain: MFFKDRFYMRTNPFYPEVELNFIS
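Further: lentivirally expressed fusions sorted by FACS into six bins by GFP to DsRed ratio, PSI derived from sequencing read proportions per bin multiplied by bin number.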

The variants in this data set derive from B1. As to the kind of experiment: protein stability index of a GFP-peptide fusion (GPS, HEK-293T) (PSI 1-6); higher = more stable. Particulars: c terminus: a fixed tail appended.
In the case of MFFKDRFIMRTNPFYPEVELNFIS [Y8I], the protein stability index stood at 2.73.

MFFKDRFCMRTNPFYPEVELNFIS [Y8C]: the protein stability index stood at 3.33. As to MFFKDRFQMRTNPFYPEVELNFIS [Y8Q], the protein stability index was determined as 2.87. For the variant MFFKDRFRMRTNPFYPEVELNFIS [Y8R], the protein stability index was 2.98. For the variant MFFKDRFPMRTNPFYPEVELNFIS [Y8P], the protein stability index turned out to be 2.98. MFFKDRFWMRTNPFYPEVELNFIS [Y8W]: the protein stability index came to 2.96.

Regarding MFFKDRFAMRTNPFYPEVELNFIS [Y8A], the protein stability index is 2.69.

For MFFKDRFFMRTNPFYPEVELNFIS [Y8F], the protein stability index amounted to 2.64. For the variant MFFKDRFDMRTNPFYPEVELNFIS [Y8D], the protein stability index stood at 2.43. With MFFKDRFGMRTNPFYPEVELNFIS [Y8G], the protein stability index is 2.07. In the case of MFFKDRFKMRTNPFYPEVELNFIS [Y8K], the protein stability index was 1.99.

In the case of MFFKDRFVMRTNPFYPEVELNFIS [Y8V], the protein stability index was 3.2.

With MFFKDRFEMRTNPFYPEVELNFIS [Y8E], the protein stability index was 1.89. Take MFFKDRFSMRTNPFYPEVELNFIS [Y8S]: the protein stability index was determined as 3.33. As for MFFKDRFHMRTNPFYPEVELNFIS [Y8H], the figure is 2.22; as for MFFKDRFMMRTNPFYPEVELNFIS [Y8M], 2.89. For the variant MFFKDRFTMRTNPFYPEVELNFIS [Y8T], the protein stability index is 2.23. Regarding MFFKDRFNMRTNPFYPEVELNFIS [Y8N], the protein stability index was 2.17. Consider MFFKNRFYMRTNPFYPEVELNFIS [D5N], for which the protein stability index is 2.77.

For MFFKMRFYMRTNPFYPEVELNFIS [D5M], the protein stability index worked out at 2.63. Take MFFKVRFYMRTNPFYPEVELNFIS [D5V]: the protein stability index is 2.6. For the variant MFFKPRFYMRTNPFYPEVELNFIS [D5P], the protein stability index is 3.51.

For the variant MFFKHRFYMRTNPFYPEVELNFIS [D5H], the protein stability index is 2.78. Consider MFFKWRFYMRTNPFYPEVELNFIS [D5W], for which the protein stability index turned out to be 1.94.

Consider MFFKSRFYMRTNPFYPEVELNFIS [D5S], for which the protein stability index was 2.64.

On to MFFKIRFYMRTNPFYPEVELNFIS [D5I], for which the protein stability index was 2.52. As for MFFKQRFYMRTNPFYPEVELNFIS [D5Q], the figure is 3.19; as for MFFKLRFYMRTNPFYPEVELNFIS [D5L], 2.49. In the case of MFFKGRFYMRTNPFYPEVELNFIS [D5G], the protein stability index was 3.47. As for MFFKYRFYMRTNPFYPEVELNFIS [D5Y], the figure is 2.38. Take MFFKTRFYMRTNPFYPEVELNFIS [D5T]: the protein stability index is 3.47. As for MFFKDRKYMRTNPFYPEVELNFIS [F7K], the figure is 2.45. With MFFKDRHYMRTNPFYPEVELNFIS [F7H], the protein stability index worked out at 2.13. As for MFFKDRRYMRTNPFYPEVELNFIS [F7R], the figure is 3.28; as for MFFKDRLYMRTNPFYPEVELNFIS [F7L], 3.36. As for MFFKDRCYMRTNPFYPEVELNFIS [F7C], the protein stability index worked out at 2.32. Consider MFFKDRDYMRTNPFYPEVELNFIS [F7D], for which the protein stability index amounted to 1.91. As for MFFKDRYYMRTNPFYPEVELNFIS [F7Y], the figure is 1.96; as for MFFKDRVYMRTNPFYPEVELNFIS [F7V], 4.52; as for MFFKDRAYMRTNPFYPEVELNFIS [F7A], 3.4. As for MFFKDRQYMRTNPFYPEVELNFIS [F7Q], the figure is 2.06. In the case of MFFKDRPYMRTNPFYPEVELNFIS [F7P], the protein stability index was 3.98. Regarding MFFKDRNYMRTNPFYPEVELNFIS [F7N], the protein stability index came out at 1.31. As for MFFKDRWYMRTNPFYPEVELNFIS [F7W], the figure is 3.2; as for MFFKDREYMRTNPFYPEVELNFIS [F7E], 3.35; as for MFFKDRMYMRTNPFYPEVELNFIS [F7M], 2.98. On to MFFKDRFYMNTNPFYPEVELNFIS [R10N], for which the protein stability index worked out at 3.09.

As for MFFKDRFYMPTNPFYPEVELNFIS [R10P], the protein stability index turned out to be 2.77. As for MFFKDRFYMQTNPFYPEVELNFIS [R10Q], the figure is 2.17; as for MFFKDRFYMATNPFYPEVELNFIS [R10A], 1.52; as for MFFKDRFYMTTNPFYPEVELNFIS [R10T], 2.47. Regarding MFFKDRFYMHTNPFYPEVELNFIS [R10H], the protein stability index amounted to 2.42.

Consider MFFKDRFYMCTNPFYPEVELNFIS [R10C], for which the protein stability index worked out at 3.2. For the variant MFFKDRFYMLTNPFYPEVELNFIS [R10L], the protein stability index stood at 2.79. As for MFFKDRFYMDTNPFYPEVELNFIS [R10D], the protein stability index was 2.14. In the case of MFFKDRFYMMTNPFYPEVELNFIS [R10M], the protein stability index stood at 2.88. As for MFFKDRFYMKTNPFYPEVELNFIS [R10K], the figure is 2.74. For MFFKDRFYMETNPFYPEVELNFIS [R10E], the protein stability index came to 2.37. As for MFFKDRFYMGTNPFYPEVELNFIS [R10G], the protein stability index amounted to 2.73.

Turning to MFFKDRFYMSTNPFYPEVELNFIS [R10S], the protein stability index came out at 3.42. MFFKDNFYMRTNPFYPEVELNFIS [R6N]: the protein stability index was found to be 2.96. Take MFFKDFFYMRTNPFYPEVELNFIS [R6F]: the protein stability index worked out at 2.48. As for MFFKDYFYMRTNPFYPEVELNFIS [R6Y], the protein stability index turned out to be 3.35. As for MFFKDWFYMRTNPFYPEVELNFIS [R6W], the figure is 2.14; as for MFFKDKFYMRTNPFYPEVELNFIS [R6K], 3.46. With MFFKDHFYMRTNPFYPEVELNFIS [R6H], the protein stability index came out at 3.05. On to MFFKDMFYMRTNPFYPEVELNFIS [R6M], for which the protein stability index came to 2.35. Consider MFFKDGFYMRTNPFYPEVELNFIS [R6G], for which the protein stability index came out at 3.07. As for MFFKDCFYMRTNPFYPEVELNFIS [R6C], the figure is 2.09; as for MFFKDIFYMRTNPFYPEVELNFIS [R6I], 3.27. For MFFKDEFYMRTNPFYPEVELNFIS [R6E], the protein stability index was 2.85.

Consider MFFKDTFYMRTNPFYPEVELNFIS [R6T], for which the protein stability index was found to be 3.77. In the case of MFFKDSFYMRTNPFYPEVELNFIS [R6S], the protein stability index was found to be 2.64. For MFFKDLFYMRTNPFYPEVELNFIS [R6L], the protein stability index amounted to 2.39. Consider MFFKDVFYMRTNPFYPEVELNFIS [R6V], for which the protein stability index is 3.16. Take MFFKDQFYMRTNPFYPEVELNFIS [R6Q]: the protein stability index is 3.4. As for MFFKDRFYQRTNPFYPEVELNFIS [M9Q], the figure is 2.65; as for MFFKDRFYKRTNPFYPEVELNFIS [M9K], 2.59. Consider MFFKDRFYWRTNPFYPEVELNFIS [M9W], for which the protein stability index was 3.91. With MFFKDRFYPRTNPFYPEVELNFIS [M9P], the protein stability index is 1.93. Turning to MFFKDRFYLRTNPFYPEVELNFIS [M9L], the protein stability index was 1.86.

In the case of MFFKDRFYSRTNPFYPEVELNFIS [M9S], the protein stability index came out at 3.67. As for MFFKDRFYCRTNPFYPEVELNFIS [M9C], the figure is 3.4; as for MFFKDRFYVRTNPFYPEVELNFIS [M9V], 2.71; as for MFFKDRFYERTNPFYPEVELNFIS [M9E], 1.93.

For MFFKDRFYFRTNPFYPEVELNFIS [M9F], the protein stability index was found to be 2.56. For MFFKDRFYARTNPFYPEVELNFIS [M9A], the protein stability index stood at 1.27.

MFFKDRFYIRTNPFYPEVELNFIS [M9I]: the protein stability index is 2.02.

Consider MFFKDRFYYRTNPFYPEVELNFIS [M9Y], for which the protein stability index came out at 3.12. Consider MFFKDRFYTRTNPFYPEVELNFIS [M9T], for which the protein stability index was 2.76. As for MFFKDRFYRRTNPFYPEVELNFIS [M9R], the protein stability index was 2.1. Regarding MFFKDRFYHRTNPFYPEVELNFIS [M9H], the protein stability index amounted to 1.83. On to MFFKDRFYGRTNPFYPEVELNFIS [M9G], for which the protein stability index is 3.71. As for MFFKDRFYDRTNPFYPEVELNFIS [M9D], the figure is 1.75.

The values are drawn from the supplement of paper PMC10567573.
